The target of this experiment is T1, recombinant mouse Axl-Fc protein (R and D Systems, cat N° 854-AX/CF) (mouse, UniProt Q00993 19-445).
T1 construct: extracellular domain; Bought construct; also called rmAxl-Fc; murine Axl ECD domain; not shown: Fc portion of the bought fusion (detected by anti-human IgG Fc)
T1 sequence (looked up): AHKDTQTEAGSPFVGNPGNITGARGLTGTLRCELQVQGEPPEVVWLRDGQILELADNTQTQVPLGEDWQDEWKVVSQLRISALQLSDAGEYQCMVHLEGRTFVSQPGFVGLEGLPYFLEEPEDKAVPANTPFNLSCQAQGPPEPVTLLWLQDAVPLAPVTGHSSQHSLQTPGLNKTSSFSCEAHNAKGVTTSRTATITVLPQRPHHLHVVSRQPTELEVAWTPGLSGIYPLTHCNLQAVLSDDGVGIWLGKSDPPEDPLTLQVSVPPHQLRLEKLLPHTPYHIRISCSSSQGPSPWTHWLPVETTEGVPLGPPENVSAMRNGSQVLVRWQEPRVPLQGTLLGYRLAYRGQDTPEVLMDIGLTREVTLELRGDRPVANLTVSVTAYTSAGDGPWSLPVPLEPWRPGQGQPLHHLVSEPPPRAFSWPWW
Kind of experiment: ELISA on coated rmAxl-Fc. As to the method:
Briefly, the recombinant mouse Axl-Fc (R and D Systems, cat N° 854-AX/CF) proteins were coated overnight at 4° C. to Immulon II 96-well plates and, after a 1 h blocking step with a 0.5% gelatine solution, the 110D7, 1003A2, 1024G11, purified antibodies, respectively, were added for an additional 1 h at 37° C. at starting concentration of 5 μg/ml (3.33 10⁻⁸ M). Then ½ serial dilutions were done over 12 columns. Then plates were washed and a goat anti-mouse (Jackson) specific IgG HRP was added for 1 h at 37° C. Reaction development was performed using the TMB substrate solution. The commercial mouse anti-Axl Mab 154 antibody is also used in parallel. Coating controls are performed in presence of a goat anti-human IgG Fc polyclonal serum coupled with HRP (Jackson, ref 109-035-098) and in presence of a HRP-coupled anti-Histidine antibody (R and D Systems, ref: MAB050H). No specific binding is observed in absence of primary antibody (diluant).
Background: ELISA stands for enzyme-linked immunosorbent assay.

B1: 1024G11 anti-Axl monoclonal antibody (antibody, V domains shown)
VH: EVKLVESGGGLVQPGGSLNLSCAASGFTFSSYSMSWVRQTPEKRLEWVAFISNGGGRTYYPDTVKGRFTFSRDNARNTLYLQMSSLNSEDTAMYFCARGTTESYYAMDYWGQGTSVTVSS
VL: DIVMTQSHKFMSTSVGDRVSITCKASQDVITAVAWYQQKPGQSPKLLIYWASTRHTGVPDRFTGSGSGTDYTLTISSVQAEDLALYFCQQHLSTPLTFGAGTKLELK
notes: Murine monoclonal antibody purified from a hybridoma; a mIgG1 isotype control (9G4) is used beside it; also called monoclonal antibody 1024G11 derived from the hybridoma I-4501
Regarding B1, the binding result is on record as “no binding”.

B2: 1003A2 anti-Axl monoclonal antibody (antibody, V domains shown)
VH: EVKLVESGGGLVQPGGSLKLSCAASGFTFNSYSMSWVRQTPEKRLEWVAYISNGGGRTYYPDTIKGRFTLSRDNDRNTLYLQMSSLKSEDTAMYYCARGTTESYYALDYWGQGTSVTVSS
VL: DIVMTQSHKFMSTSLGDRISITCKASQDVITAVAWYQQKPGQSPKLLIYWASTRHTGVPDRFTGSGSGTDYNLTISSVQAEDLALYYCQQHFSTPLTFGAGTKLELK
notes: Murine monoclonal antibody purified from a hybridoma; a mIgG1 isotype control (9G4) is used beside it; also called monoclonal antibody 1003A2 derived from the hybridoma I-4499
Consider B2, for which the binding result is “no binding”.

Values taken from patent publication US20160046725A1 (PIERRE FABRE MEDICAMENT, published 2016).
